Holding throughout (test): TAP + mass spectrometry, HEK293 cells
Assay [1] concerns the target T1, LRP5 (endogenous) (human, UniProt O75197 32-1615).
T1 construct: whole, on cells

For assay [2], the target named is T2, LRP6 (endogenous) (human, UniProt O75581 20-1613).
T2 construct: whole, on cells

The target of assay [3] is T3, Lgr4 (endogenous, or expression construct whose tag is not stated) (human, UniProt Q9BXB1 25-951).
T3 construct: whole, on cells; Endogenous protein of HEK293T / LS174T cells in TAP-MS; also called endogenous Lgr4

The values below come from patent publication US20140044713A1 (KONINKLIJKE NEDERLANDSE AKADEMIE VAN WETENSCHAPPEN, published 2014).

T2 sequence (O75581 20-1613): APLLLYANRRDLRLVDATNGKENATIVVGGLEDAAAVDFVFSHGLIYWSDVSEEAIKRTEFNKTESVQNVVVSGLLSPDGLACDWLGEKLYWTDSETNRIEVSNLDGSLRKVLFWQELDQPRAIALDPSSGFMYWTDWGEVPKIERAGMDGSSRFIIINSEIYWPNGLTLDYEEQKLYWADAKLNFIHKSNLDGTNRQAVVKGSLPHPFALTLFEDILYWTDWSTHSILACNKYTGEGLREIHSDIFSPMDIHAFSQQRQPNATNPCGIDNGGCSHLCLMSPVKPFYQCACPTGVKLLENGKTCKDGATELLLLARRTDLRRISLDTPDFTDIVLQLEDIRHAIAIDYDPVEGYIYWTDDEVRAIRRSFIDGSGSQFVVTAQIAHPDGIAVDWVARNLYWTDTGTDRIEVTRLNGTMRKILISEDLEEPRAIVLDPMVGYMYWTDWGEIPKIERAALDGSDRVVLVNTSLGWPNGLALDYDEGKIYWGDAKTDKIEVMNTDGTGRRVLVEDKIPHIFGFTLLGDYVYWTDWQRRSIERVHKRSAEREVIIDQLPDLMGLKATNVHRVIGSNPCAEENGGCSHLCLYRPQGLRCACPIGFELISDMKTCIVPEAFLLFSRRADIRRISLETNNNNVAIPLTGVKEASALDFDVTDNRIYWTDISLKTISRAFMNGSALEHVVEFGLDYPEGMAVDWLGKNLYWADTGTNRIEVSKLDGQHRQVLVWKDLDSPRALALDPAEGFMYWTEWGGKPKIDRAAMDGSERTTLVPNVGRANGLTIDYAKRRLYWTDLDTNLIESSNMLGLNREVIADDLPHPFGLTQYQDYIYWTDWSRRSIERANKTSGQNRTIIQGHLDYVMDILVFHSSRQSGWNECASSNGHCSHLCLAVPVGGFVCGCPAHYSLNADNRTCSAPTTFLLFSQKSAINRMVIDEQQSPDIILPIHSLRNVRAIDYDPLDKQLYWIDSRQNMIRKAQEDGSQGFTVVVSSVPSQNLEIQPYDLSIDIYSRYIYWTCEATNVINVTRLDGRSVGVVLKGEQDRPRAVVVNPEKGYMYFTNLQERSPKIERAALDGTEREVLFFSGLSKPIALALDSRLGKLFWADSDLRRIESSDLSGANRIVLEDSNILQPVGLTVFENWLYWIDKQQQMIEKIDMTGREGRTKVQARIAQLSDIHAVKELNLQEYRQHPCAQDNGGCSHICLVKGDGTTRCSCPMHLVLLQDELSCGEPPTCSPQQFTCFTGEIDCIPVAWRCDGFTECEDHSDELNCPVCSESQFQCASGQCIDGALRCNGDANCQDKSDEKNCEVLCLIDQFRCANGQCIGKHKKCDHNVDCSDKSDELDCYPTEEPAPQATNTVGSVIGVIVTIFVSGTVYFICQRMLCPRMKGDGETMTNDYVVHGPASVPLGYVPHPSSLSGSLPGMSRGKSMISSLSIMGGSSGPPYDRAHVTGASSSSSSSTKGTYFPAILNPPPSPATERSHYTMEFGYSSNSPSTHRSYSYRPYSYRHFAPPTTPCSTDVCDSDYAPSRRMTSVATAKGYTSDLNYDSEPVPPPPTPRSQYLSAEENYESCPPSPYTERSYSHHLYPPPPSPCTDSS
T1 sequence (O75197 32-1615): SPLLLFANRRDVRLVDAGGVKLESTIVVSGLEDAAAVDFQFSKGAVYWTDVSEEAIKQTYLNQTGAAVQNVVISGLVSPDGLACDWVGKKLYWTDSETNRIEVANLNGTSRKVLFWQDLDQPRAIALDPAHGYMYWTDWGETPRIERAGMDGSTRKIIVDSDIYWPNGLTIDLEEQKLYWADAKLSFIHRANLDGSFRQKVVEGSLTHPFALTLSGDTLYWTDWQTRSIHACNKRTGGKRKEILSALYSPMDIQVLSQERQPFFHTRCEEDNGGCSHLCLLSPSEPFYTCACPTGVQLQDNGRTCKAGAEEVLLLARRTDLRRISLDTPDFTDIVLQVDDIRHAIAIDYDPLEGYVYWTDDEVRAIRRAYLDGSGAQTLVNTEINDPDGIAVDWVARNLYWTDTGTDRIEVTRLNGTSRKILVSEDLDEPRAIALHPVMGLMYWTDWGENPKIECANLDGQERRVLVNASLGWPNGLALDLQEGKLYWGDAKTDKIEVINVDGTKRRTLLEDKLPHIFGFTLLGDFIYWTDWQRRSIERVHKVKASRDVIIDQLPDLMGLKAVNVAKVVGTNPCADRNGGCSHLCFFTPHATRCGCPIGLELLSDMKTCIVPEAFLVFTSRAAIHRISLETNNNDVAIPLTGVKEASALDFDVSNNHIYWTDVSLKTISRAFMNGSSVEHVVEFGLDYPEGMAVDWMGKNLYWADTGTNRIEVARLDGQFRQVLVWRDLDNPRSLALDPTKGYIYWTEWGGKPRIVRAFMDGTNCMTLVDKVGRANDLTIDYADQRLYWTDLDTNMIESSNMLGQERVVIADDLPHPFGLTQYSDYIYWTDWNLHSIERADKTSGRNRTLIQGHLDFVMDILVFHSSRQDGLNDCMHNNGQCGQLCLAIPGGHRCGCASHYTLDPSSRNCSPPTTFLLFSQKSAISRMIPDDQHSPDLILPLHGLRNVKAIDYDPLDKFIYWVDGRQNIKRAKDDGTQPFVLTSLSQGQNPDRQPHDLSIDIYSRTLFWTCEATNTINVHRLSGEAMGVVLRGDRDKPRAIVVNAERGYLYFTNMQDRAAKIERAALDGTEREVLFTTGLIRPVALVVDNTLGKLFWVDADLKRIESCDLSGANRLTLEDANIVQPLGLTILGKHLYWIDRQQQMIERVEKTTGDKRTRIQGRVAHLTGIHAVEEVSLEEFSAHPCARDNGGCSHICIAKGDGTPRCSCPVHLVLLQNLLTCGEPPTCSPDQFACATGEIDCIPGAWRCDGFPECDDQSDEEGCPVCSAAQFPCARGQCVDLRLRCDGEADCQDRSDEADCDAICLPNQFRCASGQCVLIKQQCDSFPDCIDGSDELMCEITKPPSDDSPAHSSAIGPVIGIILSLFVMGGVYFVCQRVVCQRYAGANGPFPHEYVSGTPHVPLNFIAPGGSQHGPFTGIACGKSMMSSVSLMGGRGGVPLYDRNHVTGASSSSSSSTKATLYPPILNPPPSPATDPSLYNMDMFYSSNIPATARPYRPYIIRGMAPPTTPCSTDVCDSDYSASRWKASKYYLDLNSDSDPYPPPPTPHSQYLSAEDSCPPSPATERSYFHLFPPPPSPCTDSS

B1: FBXO18 (other, not shown: small tags and cut ends)
chain: MRRFKRKHLTAIDCQHLARSHLAVTQPFGQRWTNRDPNHGLYPKPRTKRGSRGQGSQRCIPEFFLAGKQPCTNDMAKSNSVGQDSCQDSEGDMIFPAESSCALPQEGSAGPGSPGSAPPSRKRSWSSEEESNQATGTSRWDGVSKKAPRHHLSVPCTRPREARQEAEDSTSRLSAESGETDQDAGDVGPDPIPDSYYGLLGTLPCQEALSHICSLPSEVLRHVFAFLPVEDLYWNLSLVCHLWREIISDPLFIPWKKLYHRYLMNEEQAVSKVDGILSNCGIEKESDLCVLNLIRYTATTKCSPSVDPERVLWSLRDHPLLPEAEACVRQHLPDLYAAAGGVNIWALVAAVVLLSSSVNDIQRLLFCLRRPSSTVTMPDVTETLYCIAVLLYAMREKGINISNRIHYNIFYCLYLQENSCTQATKVKEEPSVWPGKKTIQLTHEQQLILNHKMEPLQVVKIMAFAGTGKTSTLVKYAEKWSQSRFLYVTFNKSIAKQAERVFPSNVICKTFHSMAYGHIGRKYQSKKKLNLFKLTPFMVNSVLAEGKGGFIRAKLVCKTLENFFASADEELTIDHVPIWCKNSQGQRVMVEQSEKLNGVLEASRLWDNMRKLGECTEEAHQMTHDGYLKLWQLSKPSLASFDAIFVDEAQDCTPAIMNIVLSQPCGKIFVGDPHQQIYTFRGAVNALFTVPHTHVFYLTQSFRFGVEIAYVGATILDVCKRVRKKTLVGGNHQSGIRGDAKGQVALLSRTNANVFDEAVRVTEGEFPSRIHLIGGIKSFGLDRIIDIWILLQPEEERRKQNLVIKDKFIRRWVHKEGFSGFKRYVTAAEDKELEAKIAVVEKYNIRIPELVQRIEKCHIEDLDFAEYILGTVHKAKGLEFDTVHVLDDFVKVPCARHNLPQLPHFRVESFSEDEWNLLYVAVTRAKKRLIMTKSLENILTLAGEYFLQAELTSNVLKTGVVRCCVGQCNNAIPVDTVLTMKKLPITYSNRKENKGGYLCHSCAEQRIGPLAFLTASPEQVRAMERTVENIVLPRHEALLFLVF
notes: TAP-MS bait
As for B1, the binding result in assay [1] and in assay [2] was “no binding” throughout.

B2: FBXO31 (other, not shown: small tags and cut ends)
chain: MAVCARLCGVGPSRGCRRRQQRRGPAETAAADSEPDTDPEEERIEASAGVGGGLCAGPSPPPPRCSLLELPPELLVEIFASLPGTDLPSLAQVCTKFRRILHTDTIWRRRCREEYGVCENLRKLEITGVSCRDVYAKLLHRYRHILGLWQPDIGPYGGLLNVVVDGLFIIGWMYLPPHDPHVDDPMRFKPLFRIHLMERKAATVECMYGHKGPHHGHIQIVKKDEFSTKCNQTDHHRMSGGRQEEFRTWLREEWGRTLEDIFHEHMQELILMKFIYTSQYDNCLTYRRIYLPPSRPDDLIKPGLFKGTYGSHGLEIVMLSFHGRRARGTKITGDPNIPAGQQTVEIDLRHRIQLPDLENQRNFNELSRIVLEVRERVRQEQQEGGHEAGEGRGRQGPRESQPSPAQPRAEAPSKGPDGTPGEDGGEPGDAVAAAEQPAQCGQGQPFVLPVGVSSRNEDYPRTCRMCFYGTGLIAGHGFTSPERTPGVFILFDEDRFGFVWLELKSFSLYSRVQATFRNADAPSPQAFDEMLKNIQSLTS
notes: TAP-MS bait
On to B2, for which the binding result in assay [3], in assay [1] and in assay [2] was “no binding” throughout.

B3: FBXO3 (other, not shown: small tags and cut ends)
chain: MAAMETETAPLTLESLPTDPLLLILSFLDYRDLINCCYVSRRLSQLSSHDPLWRRHCKKYWLISEEEKTQKNQCWKSLFIDTYSDVGRYIDHYAAIKKAWDDLKKYLEPRCPRMVLSLKEGAREEDLDAVEAQIGCKLPDDYRCSYRIHNGQKLVVPGLLGSMALSNHYRSEDLLDVDTAAGGFQQRQGLKYCLPLTFCIHTGLSQYIAVEAAEGRNKNEVFYQCPDQMARNPAAIDMFIIGATFTDWFTSYVKNVVSGGFPIIRDQIFRYVHDPECVATTGDITVSVSTSFLPELSSVHPPHYFFTYRIRIEMSKDALPEKACQLDSRYWRITNAKGDVEEVQGPGVVGEFPIISPGRVYEYTSCTTFSTTSGYMEGYYTFHFLYFKDKIFNVAIPRFHMACPTFRVSIARLEMGPDEYEEMEEEEEEEEEEDEDDDSADMDESDEDDEEERRRRVFDVPIRRRRCSRLF
notes: TAP-MS bait
As to B3, the binding result in assay [3], in assay [1] and in assay [2] was “no binding” each time.

B4: USP47 (enzyme, not shown: small tags and cut ends)
chain: MVPGEENQLVPKEDVFWRCRQNIFDEMKKKFLQIENAAEEPRVLCIIQDTTNSKTVNERITLNLPASTPVRKLFEDVANKVGYINGTFDLVWGNGINTADMAPLDHTSDKSLLDANFEPGKKNFLHLTDKDGEQPQILLEDSSAGEDSVHDRFIGPLPREGSGGSTSDYVSQSYSYSSILNKSETGYVGLVNQAMTCYLNSLLQTLFMTPEFRNALYKWEFEESEEDPVTSIPYQLQRLFVLLQTSKKRAIETTDVTRSFGWDSSEAWQQHDVQELCRVMFDALEQKWKQTEQADLINELYQGKLKDYVRCLECGYEGWRIDTYLDIPLVIRPYGSSQAFASVEEALHAFIQPEILDGPNQYFCERCKKKCDARKGLRFLHFPYLLTLQLKRFDFDYTTMHRIKLNDRMTFPEELDMSTFIDVEDEKSPQTESCTDSGAENEGSCHSDQMSNDFSNDDGVDEGICLETNSGTEKISKSGLEKNSLIYELFSVMVHSGSAAGGHYYACIKSFSDEQWYSFNDQHVSRITQEDIKKTHGGSSGSRGYYSSAFASSTNAYMLIYRLKDPARNAKFLEVDEYPEHIKNLVQKERELEEQEKRQREIERNTCKIKLFCLHPTKQVMMENKLEVHKDKTLKEAVEMAYKMMDLEEVIPLDCCRLVKYDEFHDYLERSYEGEEDTPMGLLLGGVKSTYMFDLLLETRKPDQVFQSYKPGEVMVKVHVVDLKAESVAAPITVRAYLNQTVTEFKQLISKAIHLPAETMRIVLERCYNDLRLLSVSSKTLKAEGFFRSNKVFVESSETLDYQMAFADSHLWKLLDRHANTIRLFVLLPEQSPVSYSKRTAYQKAGGDSGNVDDDCERVKGPVGSLKSVEAILEESTEKLKSLSLQQQQDGDNGDSSKSTETSDFENIESPLNERDSSASVDNRELEQHIQTSDPENFQSEERSDSDVNNDRSTSSVDSDILSSSHSSDTLCNADNAQIPLANGLDSHSITSSRRTKANEGKKETWDTAEEDSGTDSEYDESGKSRGEMQYMYFKAEPYAADEGSGEGHKWLMVHVDKRITLAAFKQHLEPFVGVLSSHFKVFRVYASNQEFESVRLNETLSSFSDDNKITIRLGRALKKGEYRVKVYQLLVNEQEPCKFLLDAVFAKGMTVRQSKEELIPQLREQCGLELSIDRFRLRKKTWKNPGTVFLDYHIYEEDINISSNWEVFLEVLDGVEKMKSMSQLAVLSRRWKPSEMKLDPFQEVVLESSSVDELREKLSEISGIPLDDIEFAKGRGTFPCDISVLDIHQDLDWNPKVSTLNVWPLYICDDGAVIFYRDKTEELMELTDEQRNELMKKESSRLQKTGHRVTYSPRKEKALKIYLDGAPNKDLTQD
notes: TAP-MS bait
B4: the binding result in assay [1] and in assay [2] was “no binding” throughout.

B5: RNF43 (other, not shown: small tags and cut ends)
chain: GFGRTGLVLAAAVESERSAEQKAIIRVIPLKMDPTGKLNLTLEGVFAGVAEITPAEGKLMQSHPLYLCNASDDDNLEPGFISIVKLESPRRAPRPCLSLASKARMAGERGASAVLFDITEDRAAAEQLQQPLGLTWPVVLIWGNDAEKLMEFVYKNQKAHVRIELKEPPAWPDYDVWILMTVVGTIFVIILASVLRIRCRPRHSRPDPLQQRTAWAISQLATRRYQASCRQARGEWPDSGSSCSSAPVCAICLEEFSEGQELRVISCLHEFHRNCVDPWLHQHRTCPLCMFNITEGDSFSQSLGPSRSYQEPGRRLHLIRQHPGHAHYHLPAAYLLGPSRSAVARPPRPGPFLPSQEPGMGPRHHRFPRAAHPRAPGEQQRLAGAQHPYAQGWGLSHLQSTSQHPAACPVPLRRARPPDSSGSGESYCTERSGYLADGPASDSSSGPCHGSSSDSVVNCTDISLQGVHGSSSTFCSSLSSDFDPLVYCSPKGDPQRVDMQPSVTSRPRSLDSVVPTGETQVSSHVHYHRHRHHHYKKRFQWHGRKPGPETGVPQSRPPIPRTQPQPEPPSPDQQVTRSNSAAPSGRLSNPQCPRALPEPAPGPVDASSICPSTSSLFNLQKSSLSARHPQRKRRGGPSEPTPGSRPQDATVHPACQIFPHYTPSVAYPWSPEAHPLICGPPGLDKRLLPETPGPCYSNSQPVWLCLTPRQPLEPHPPGEGPSEWSSDTAEGRPCPYPHCQVLSAQPGSEEELEELCEQAV
notes: TAP-MS bait
With B5, the binding result in assay [1] is listed as “no binding”.

B6: PER2 (other, not shown: small tags and cut ends)
chain: MNGYAEFPPSPSNPTKEPVEPQPSQVPLQEDVDMSSGSSGHETNENCSTGRDSQGSDCDDSGKELGMLVEPPDARQSPDTFSLMMAKSEHNPSTSGCSSDQSSKVDTHKELIKTLKELKVHLPADKKAKGKASTLATLKYALRSVKQVKANEEYYQLLMSSEGHPCGADVPSYTVEEMESVTSEHIVKNADMFAVAVSLVSGKILYISDQVASIFHCKRDAFSDAKFVEFLAPHDVGVFHSFTSPYKLPLWSMCSGADSFTQECMEEKSFFCRVSVRKSHENEIRYHPFRMTPYLVKVRDQQGAESQLCCLLLAERVHSGYEAPRIPPEKRIFTTTHTPNCLFQDVDERAVPLLGYLPQDLIETPVLVQLHPSDRPLMLAIHKKILQSGGQPFDYSPIRFRARNGEYITLDTSWSSFINPWSRKISFIIGRHKVRVGPLNEDVFAAHPCTEEKALHPSIQELTEQIHRLLLQPVPHSGSSGYGSLGSNGSHEHLMSQTSSSDSNGHEDSRRRRAEICKNGNKTKNRSHYSHESGEQKKKSVTEMQTNPPAEKKAVPAMEKDSLGVSFPEELACKNQPTCSYQQISCLDSVIRYLESCNEAATLKRKCEFPANVPALRSSDKRKATVSPGPHAGEAEPPSRVNSRTGVGTHLTSLALPGKAESVASLTSQCSYSSTIVHVGDKKPQPELEMVEDAASGPESLDCLAGPALACGLSQEKEPFKKLGLTKEVLAAHTQKEEQSFLQKFKEIRKLSIFQSHCHYYLQERSKGQPSERTAPGLRNTSGIDSPWKKTGKNRKLKSKRVKPRDSSESTGSGGPVSARPPLVGLNATAWSPSDTSQSSCPAVPFPAPVPAAYSLPVFPAPGTVAAPPAPPHASFTVPAVPVDLQHQFAVQPPPFPAPLAPVMAFMLPSYSFPSGTPNLPQAFFPSQPQFPSHPTLTSEMASASQPEFPSRTSIPRQPCACPATRATPPSAMGRASPPLFQSRSSSPLQLNLLQLEEAPEGGTGAMGTTGATETAAVGADCKPGTSRDQQPKAPLTRDEPSDTQNSDALSTSSGLLNLLLNEDLCSASGSAASESLGSGSLGCDASPSGAGSSDTSHTSKYFGSIDSSENNHKAKMNTGMEESEHFIKCVLQDPIWLLMADADSSVMMTYQLPSRNLEAVLKEDREKLKLLQKLQPRFTESQKQELREVHQWMQTGGLPAAIDVAECVYCENKEKGNICIPYEEDIPSLGLSEVSDTKEDENGSPLNHRIEEQT
notes: TAP-MS bait
Turning to B6, the binding result in assay [1] and in assay [2] was “no binding” in each case.
